Numbering of substitutions follows the chain as printed. Numbers in names are those of the source.
B1: IL13-P3-1G5VH-cIgGB/IL13-P3-1G5VL-cCL (antibody, V domains shown)
VH: EVQLVQSGGDLVKPGGTLRLSCVASGFTFSSYDMSWVRQSPGKGLQWVAAIWNDGSNTEYADAVKGRFTVSRDNAKNTVYLEMNSLRAEDTAMYYCVKEGPSYGYFDYWGQGTLVTVSS
VL: SYELTQPPSVSVSLGQTATISCSGESLSKYYAQWFQQKAGQAPVLVIYQDTERPSGIPDRFSGSSSGNTHTLTISGARAEDEADYYCESAISPDTYVFGSGTQLTILG
notes: Full-length canine IgG-B; also called IL13-1G5
B2: IL13-P3-05VH-cIgGB/IL13-P3-05VL-cCL (antibody, V domains shown)
VH: EVQLVESGGDSVRPGGSLRLSCVASGFTFSRYNMGWVRQAPGKGLQWVAWIYDGGSRTSYADAVKGRFTISRDNAKDTLYLQMDDLRVDDTAVYYCARDPSSWGSLFDYWGQGTLVTVSS
VL: SYVLTQPPSVTVPLRQTARISCGGDNIRSKNVHWYQQKPGQAPVLIIYNDSNRPTGIPERFSGSNSGNMATLTIRGALAEDEADYYCQVWANDGYVFGSGTQLTVLG
notes: Full-length canine IgG-B
B3: IL13-P3-05VH-cIgGB/IL13-P3-05VLm-cCL (antibody, V domains shown)
VH: B2 VH
VL: B2 VL with N49Q
notes: Full-length canine IgG-B. The light chain has N replaced by Q in CDRL2 to remove a potential glycosylation site; also called IL13-P3-05Lm; IL-13 P3-05Lm
B4: IL13-P3-1B4VH-cIgGB/IL13-P3-1B4VL-cCL (antibody)
heavy: ELTLQESGPGLVKPSQTLSLTCVVSGGSVTSNYYWNWIRQRPGRGLEWMGYWTGSTNYNPAFQGRISITADTAKNHFSLQLTSMTTEDTAVYYCARASTWLHGMDFWGHGTSLFVSSASTTAPSVFPLAPSCGSTSGSTVALACLVSGYFPEPVTVSWNSGSLTSGVHTFPSVLQSSGLYSLSSMVTVPSSRWPSETFTCNVAHPASKTKVDKPVPKRENGRVPRPPDCPKCPAPEMLGGPSVFIFPPKPKDTLLIARTPEVTCVVVDLDPEDPEVQISWFVDGKQMQTAKTQPREEQFNGTYRVVSVLPIGHQDWLKGKQFTCKVNNKALPSPIERTISKARGQAHQPSVYVLPPSREELSKNTVSLTCLIKDFFPPDIDVEWQSNGQQEPESKYRTTPPQLDEDGSYFLYSKLSVDKSRWQRGDTFICAVMHEALHNHYTQESLSHSPGK
light: SYVLTQSPSVSGSLGQTVTISCSGTTIGVVGANWYQQLPGKAPKLLVHSDGGRLSGVPDRFSGSESGNSAALTITGLQAEDEADYYCQSFDTTLGYVFGSGTQLTILGQPKASPSVTLFPPSSEELGANKATLVCLISDFYPSGVTVAWKADGSPVTQGVETTKPSKQSNNKYAASSYLSLTPDKWKSHSSFSCLVTHEGSTVEKKVAPAECS
notes: Full-length canine IgG-B; also called IL13-1B4
B5: IL13-P3-1C6VH-cIgGB/IL13-P3-1C6VL-cCL (antibody, V domains shown)
VH: ELTLQESGPGLVKPSQTLSLTCVVSGGSVTNTYEWDWIRQRPGRGLEWMGSWTDNTWYNPAFQGRISITADTAKNQLSLQLSSVTTGDTAVYFCARWTKRWGYDYWGQGTLVTVSS
VL: QSVLTQPASVSGSLGQRVTISCSGRTNNIGYFGANWYQQVPGKAPKLLVSSYGNRPSGVPDRFSASNSANSATLTITGLQAEDEADYYCQSFDTTLGAVVFGGGTQLTVLG
B6: IL4-P3-1B9VH-cIgGB/IL4-P3-1B9VL-cCL (antibody, V domains shown)
VH: ELQLVELGGDLVKPGGSLRLSCVASGFTFSSYGMSWVRQSPGKGLQWVADISSSGSTYYADAVKGRFTISRDNAKSTLYLQMNSLRAEDTAVYYCAKAGYGSYYDFGMDYWGHGTSVFVSS
VL: QAVLTQPASVSAALGQRVTISCTGTATNVGGGYDVQWYQQFPGRPPKTIIYGNYNRPSGVPDRFSASTSGTTATLTITGIQVADEADYYCQSFDTTFNGHVFGAGTQLTILG
notes: Full-length canine IgG-B
B7: IL4-P3-1C4VH-cIgGB/IL4-P3-1C4VL-cCL (antibody, V domains shown)
VH: EVPLVESGGDLVKPGGSLRISCVASGITFNNDDMGWVRQAPGKGLQWLAEISSSGTSTYYADAVKGRFTISRDNAKNTVYLQMNSLKAEDTGVYYCVGEDGYMALGFWGQGTLVTVSS
VL: QAVLNQPASVSGSLGQRVTISCSGSTNNIGVVGASWYQQFPGKAPKLLVYSDGDRPSGVPDRFSGSNSGYSDTLTITGLQAEDEADYYCQSFDTTLNAYVFGSGTQLTVLG
notes: Full-length canine IgG-B; also called IL4 P3-1 C4 5LC
B8: IL4-P3-1B10VHm-cIgGB/IL4-P3-1B10VL-cCL (antibody, V domains shown)
VH: EVQLVESGGDLVKPGGSLRLSCVASGFTFSNYDMSWVRQAPGKGLQWVSTISYDGQNTYYSDAVKGRFTISRDNARNTLYLQMNSLRAEDTAVYYCAKEFDIPWDNFDYWGQGTLVTVSS
VL: QSVLTQPTSVSAALGQRVTISCTGSNANIGSVYDVQWYQQLPGKSPKTIIYGNTHRPSGVPVRFSGSKSGSTATLTITGIQAEDEADYYCQSYDATLHYVFGSGTQLTVLG
notes: Full-length canine IgG-B; also called IL4 P3-1 B10m
B9: IL4-P3-1D7VH-cIgGB/IL4-P3-1D7VL-cCL (antibody, V domains shown)
VH: EVQLVQSGGDLVKPGGSLRLSCVASGFAFNGYDMDWVRLAPGKGLQWLSEISSSGSPTYYADAVEGRFTISRDNAKNTLYLQMDSLRAEDTAVYYCARAGEYTYGYEGYYFDYWGQGTLVTVSS
VL: QSMLTQPASVSGSLGQRVAISCSGSTNNIGIFGATWYQHLPGKAPKFLLYSDGNRPSGVPDRFSGSDSGNSVTLMITALQAEDEADYYCQSFDTTLGAYVFGSGTQLTILG
notes: Full-length canine IgG-B; also called IL4-P3-1D7VH-cIgGB/IL4-P3-D7VL-cCL
B10: IL4-P4-1G3VH-cIgGB/IL4-P4-1G3VL-cCL (antibody, V domains shown)
VH: EVQLVESGGDLVKPGGSLRLSCVASGFTFSSYDMDWVRQAPGKGLEWLSEISTNGDRTHYADAVKGRFAISRDNAKNTVYLQMNSLRAEDTAIYYCVRDGYEYLAFDYWGQGTLVTVSS
VL: QSVLNQLPSLSMNMGETATFTCEGDNIGHKYVNWYQQKPGQAPVLTIYEDNKRPSGIPERFSGSNSGNTATLTISGARAEDEADYYCESEVSTGIVFGGGTHLTVLG
notes: Full-length canine IgG-B
B11: IL4-P4A-1F10VH-cIgGB/IL4-P4A-1F10VL-cCL (antibody, V domains shown)
VH: EVQLVQSGGDLVKPAGSLRLSCVASGFTFNSYAMSWVRQAPGKGLQWVAGINSGGSTTTYADAVKGRFTISRDNAKNTLYLQMNSLRAEDTAVYYCAKDQNSYYPSDTFEYWGQGTLVTVSS
VL: QTVVTQEPSLSVSPGGTVTLTCGLSSGSVSTGNYPGWYQQTQGRAPRSIIYDTNSRPSGVPDRFSGSISGNKAVLTITGAQPEDEADYYCSLYTGIAYTDVVFGGGTHLTVLG
notes: Full-length canine IgG-B; also called IL4-1F10; IL4 1F10
B12: IL4-P4A-1A10VH-cIgGB/IL4-P4-1A10VL-cCL (antibody, V domains shown)
VH: EVQLVESGGDLVKPGGSLRLSCVASGFTFSDYDMTWVRQAPGKGLQWVADINNGGSSTTYADAVKGRFTISRDNAKNTLYLQMNSLRAEDTAMYYCAKEGDNTWLSFDSWGQGTLVTVSS
VL: QSVLNQLPSVSGSLGQKVTIRCSGNTDNIGMVGAAWYRQVPGEAPKLLLYSDGNRPSGVPDRFSGSDSGRSATLTITGLQPEDEADYYCQSLDPTVPGNYLFGSGTQLTILG
notes: also called IL4-P4-1A10VH-cIgGB/IL4-P4-1A10VL-cCL

Each binder was assayed against T1, Recombinant canine IL-13 (R&D Systems, Catalog: 5894-CL/CF) (canine, UniProt Q9N0W9 19-131, limits assumed) (assay: cell-based or functional assay).
T1 sequence (looked up): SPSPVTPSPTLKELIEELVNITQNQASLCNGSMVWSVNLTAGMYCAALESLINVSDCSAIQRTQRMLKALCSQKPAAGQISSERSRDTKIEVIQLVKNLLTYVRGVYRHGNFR

Row | Binder | IL-13 IC50 (nM); inhibition of canine IL-13 mediated STAT6 phosphorylation in DH82 cells
1 | B1 | 94.1 nM
2 | B2 | 13.1 nM
3 | B3 | 4.44 nM
4 | B4 | 97.5 nM
5 | B5 | 47.9 nM

Target: T2, Canine IL-13 with C-terminal Avi-HIS tag (canine, biotin label when loaded on SA biosensors (Example 4); site not stated)
T2 construct: also called cIL-13; biotinylated avitag-cIL13
T2 chain: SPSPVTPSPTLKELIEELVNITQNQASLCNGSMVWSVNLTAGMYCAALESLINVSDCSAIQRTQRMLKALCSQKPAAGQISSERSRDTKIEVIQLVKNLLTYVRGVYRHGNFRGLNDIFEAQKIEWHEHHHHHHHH
Assay: BLI (OCTET HTX); biotin-mAb on SA biosensors, cIL-13 in solution; 1:1 model
Method: (§1) Selected scFv specific to cIL-4 or cIL-13 were converted into full length canine IgG mAbs and tested for binding by OCTET. All kinetics measurements were performed by OCTET HTX using SA biosensors and Data Acquisition 12.0 software. First, each biotin-labeled full-length anti-canine IL-4 or anti-canine IL-13 mAb, at a concentration of 5 μg/mL, were loaded onto the pre-rehydrated SA biosensors until binding signal change ascended to a […] threshold for all channels from the step start or for a maximum of 1200s to insure equal loading density. Second, the biosensors were placed into OCTET Kinetics Buffer (PBS+0.02% Tween20, 0.1% BSA) for the blocking phase for 60s. Third, for the association phase, full-length anti-canine IL-4 mAb or anti-canine IL-13 mAb loaded biosensors were placed into 2-fold serial dilutions from 1000 nM down to 15.6 nM of cIL-4 or cIL-13, respectively, in OCTET Kinetics Buffer for 60s. The last well was buffer alone and that sensor was used for reference sensor subtraction. Finally, the biosensors were placed into OCTET Kinetics Buffer for the dissociation phase for 180s. Analysis was performed using Data Analysis 12.0 software and curves were fitted using a 1:1 binding model.

Row | Binder | Kd | koff | kon
6 | B1 | 1.19 nM | 0.0018 s⁻¹ | 1.3e+06 M⁻¹ s⁻¹
7 | B2 | 5.58 nM | 0.00148 s⁻¹ | 252000 M⁻¹ s⁻¹
8 | B3 | 5.45 nM | 0.000793 s⁻¹ | 162000 M⁻¹ s⁻¹
9 | B4 | 8.12 nM | 0.00208 s⁻¹ | 256000 M⁻¹ s⁻¹

Target: T3, Canine IL-4 with C-terminal Avi-HIS tag (canine, biotin label when loaded on SA biosensors (Example 4); site not stated)
T3 construct: also called cIL-4; biotinylated avitag-cIL-4
T3 chain: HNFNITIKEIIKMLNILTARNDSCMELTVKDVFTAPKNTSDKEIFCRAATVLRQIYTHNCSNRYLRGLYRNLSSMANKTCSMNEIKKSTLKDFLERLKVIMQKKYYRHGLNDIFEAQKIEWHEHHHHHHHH
Assay: BLI (OCTET HTX); biotin-mAb on SA biosensors, cIL-4 in solution; 1:1 model
Method: as §1

Row | Binder | Kd | koff | kon
10 | B6 | 0.0635 nM | 2.11e-05 s⁻¹ | 212000 M⁻¹ s⁻¹
11 | B7 | 10.5 nM | 0.0189 s⁻¹ | 1.8e+06 M⁻¹ s⁻¹
12 | B8 | 0.622 nM | 0.000809 s⁻¹ | 1.3e+06 M⁻¹ s⁻¹
13 | B9 | 2.01 nM | 0.00226 s⁻¹ | 1.12e+06 M⁻¹ s⁻¹
14 | B10 | 1.51 nM | 0.00243 s⁻¹ | 1.61e+06 M⁻¹ s⁻¹
15 | B11 | 0.305 nM | 0.000114 s⁻¹ | 374000 M⁻¹ s⁻¹
16 | B12 | 0.846 nM | 0.00105 s⁻¹ | 1.24e+06 M⁻¹ s⁻¹

What follows are binders tested against T4, Recombinant canine IL-4 (R&D Systems, Catalog: 752-CL/CF) (canine, UniProt O77762 25-132) (assay: cell-based or functional assay).
T4 sequence (looked up): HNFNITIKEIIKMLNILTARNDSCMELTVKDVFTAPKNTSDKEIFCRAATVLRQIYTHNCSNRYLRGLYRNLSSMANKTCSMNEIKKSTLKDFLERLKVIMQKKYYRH

Row | Binder | IL-4 IC50 (nM); inhibition of canine IL-4 mediated STAT6 phosphorylation in DH82 cells
17 | B6 | 3.77 nM
18 | B7 | 5.41 nM
19 | B8 | 30 nM
20 | B9 | 37.6 nM
21 | B10 | 8.31 nM
22 | B11 | 0.58 nM
23 | B12 | 3.15 nM
